B1: MBP-Vif(101–176)_(PPGP) (domain or fragment)
chain: not shown
B2: MBP-Vif(101–172) (domain or fragment)
chain: ELADQLIHLYYFDCFSDSAIRKALLGHIVSPRCEYQAGHNKVGSLQYLALAALITPKKIKPPLPSVTKLTED
B3: MBP-Vif(101–192) (domain or fragment)
chain: ELADQLIHLYYFDCFSDSAIRKALLGHIVSPRCEYQAGHNKVGSLQYLALAALITPKKIKPPLPSVTKLTEDRWNKPQKTKGHRGSHTMNGH
B4: MBP-Vif(101–160) (domain or fragment)
chain: ELADQLIHLYYFDCFSDSAIRKALLGHIVSPRCEYQAGHNKVGSLQYLALAALITPKKIK
B5: MBP-Vif(101–165) (domain or fragment)
chain: ELADQLIHLYYFDCFSDSAIRKALLGHIVSPRCEYQAGHNKVGSLQYLALAALITPKKIKPPLPS
B6: MBP-Vif(101–176)_(AALA) (domain or fragment)
chain: ELADQLIHLYYFDCFSDSAIRKALLGHIVSPRCEYQAGHNKVGSLQYLALAALITPKKIKAALASVTKLTEDRWNK
B7: MBP-Vif(101–176) V166S (domain or fragment)
chain: not shown
B8: MBP-Vif(101–176) (domain or fragment)
chain: not shown
B9: MBP-Vif(154–176) (domain or fragment)
chain: ITPKKIKPPLPSVTKLTEDRWNK
B10: MBP-Vif(101–176)_(PPPP) (domain or fragment)
chain: not shown

Assays:
Assay in all cases: AUC
AUC [1] = biological target: the molecule itself
AUC [2] = biological target: the molecule itself; remark: listed apart in the source
AUC [3] = biological target: the molecule itself; remark: listed apart in the source

Protein	binding result (AUC [1])	percent monomer at 10 μM (AUC [2])	also measured
B1	binds	–	–
B2	–	< 30%	–
B3	–	< 30%	–
B4	–	< 30%	–
B5	–	< 30%	–
B6	binds	–	–
B7	binds	–	–
B8	–	< 30%	–
B9	–	–	stoichiometry N (AUC [3]): 2
B10	binds	–	–

Source: publication PMC3302947 (Biochemistry, 2012)
